Results as given in patent US20230374484.

T1: activated clotting factor VIII (fVIIIa), P00451
T1 chain: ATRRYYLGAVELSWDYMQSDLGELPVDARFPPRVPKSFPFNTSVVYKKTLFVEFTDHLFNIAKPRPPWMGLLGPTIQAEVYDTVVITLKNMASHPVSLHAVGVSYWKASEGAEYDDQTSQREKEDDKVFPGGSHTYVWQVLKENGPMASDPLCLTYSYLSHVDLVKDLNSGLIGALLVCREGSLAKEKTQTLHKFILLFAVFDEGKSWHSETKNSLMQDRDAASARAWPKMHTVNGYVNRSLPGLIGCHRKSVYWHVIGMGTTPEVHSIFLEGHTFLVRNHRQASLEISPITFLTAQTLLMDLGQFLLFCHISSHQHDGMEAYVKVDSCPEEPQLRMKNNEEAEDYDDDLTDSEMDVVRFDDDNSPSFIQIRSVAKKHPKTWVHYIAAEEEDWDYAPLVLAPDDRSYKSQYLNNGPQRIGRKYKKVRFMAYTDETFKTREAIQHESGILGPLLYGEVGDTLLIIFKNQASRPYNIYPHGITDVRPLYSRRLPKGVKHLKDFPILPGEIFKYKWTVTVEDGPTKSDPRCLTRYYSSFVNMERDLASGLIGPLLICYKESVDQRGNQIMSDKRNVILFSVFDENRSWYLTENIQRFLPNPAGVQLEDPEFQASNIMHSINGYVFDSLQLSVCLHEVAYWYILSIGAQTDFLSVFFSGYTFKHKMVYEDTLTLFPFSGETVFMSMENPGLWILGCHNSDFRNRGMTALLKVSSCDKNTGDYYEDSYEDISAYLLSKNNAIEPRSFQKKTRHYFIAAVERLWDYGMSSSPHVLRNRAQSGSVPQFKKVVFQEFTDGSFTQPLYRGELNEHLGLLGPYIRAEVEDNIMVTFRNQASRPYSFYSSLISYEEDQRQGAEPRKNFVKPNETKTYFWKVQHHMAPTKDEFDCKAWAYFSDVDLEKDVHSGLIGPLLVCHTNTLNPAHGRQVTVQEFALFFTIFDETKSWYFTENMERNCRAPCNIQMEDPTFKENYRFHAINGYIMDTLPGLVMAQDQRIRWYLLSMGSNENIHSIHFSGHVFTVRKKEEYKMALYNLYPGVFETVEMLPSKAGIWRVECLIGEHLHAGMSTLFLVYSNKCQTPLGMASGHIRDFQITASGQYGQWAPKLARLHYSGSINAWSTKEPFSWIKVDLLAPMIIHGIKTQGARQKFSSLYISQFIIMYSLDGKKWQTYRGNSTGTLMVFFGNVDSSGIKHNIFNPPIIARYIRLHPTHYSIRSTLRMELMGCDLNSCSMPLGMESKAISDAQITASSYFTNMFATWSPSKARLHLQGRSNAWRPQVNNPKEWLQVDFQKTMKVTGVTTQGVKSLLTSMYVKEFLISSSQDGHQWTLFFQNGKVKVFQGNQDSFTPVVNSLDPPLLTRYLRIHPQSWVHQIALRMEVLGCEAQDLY

B1: An96 fIX (ancestral sequence 96 factor IX) (protein)
chain: YNSGKLEEFVRGNLERECIEEKCSFEEAREVFENTEKTTEFWKQYVDGDQCESNPCLNGGSCKDDINSYECWCRFGFEGKNCELDATCSIKNGRCKQFCKKSADNKVVCSCTEGYRLAEDQKSCEPAVPFPCGRVSVSHTSKKLTRAETIFSNMDYENSTEAETILDNVTQSTQSFNDFTRVVGGENAKPGQFPWQVLLNGKIDAFCGGSIINEKWVVTAAHCIEPGVKITVVAGEHNIEKTEPTEQKRNVIRVIPHHNYNATINKYSHDIALLELDKPLTLNSYVTPICIANREYTNIFLKFGSGYVSGWGRVFNRGRSASILQYLRVPLVDRATCLRSTKFTIYNNMFCAGYHEGGKDSCQGDSGGPHVTEVEGTSFLTGIISWGEECAMKGKYGIYTKVSRYVNWIKEKTKLT
B2: fIX optimized sequence Beta (no Padua) (protein)
chain: YNSGKLEEFVQGNLERECMEEKCSFEEAREVFENTERTTEFWKQYVDGDQCESNPCLNGGSCKDDINSYECWCPFGFEGKNCELDATCNIKNGRCEQFCKNSADNKVVCSCTEGYRLAENQKSCEPAVPFPCGRVSVSQTSKLTRAETVFPDVDYVNSTEAETILDNITQSTQSFNDFTRVVGGEDAKPGQFPWQVVLNGKVDAFCGGSIVNEKWIVTAAHCVETGVKITVVAGEHNIEETEHTEQKRNVIRIIPHHNYNAAINKYNHDIALLELDEPLVLNSYVTPICIANKEYTNIFLKFGSGYVSGWGRVFHRGRSASVLQYLRVPLVDRATCLRSTKFTIYNNMFCAGFHEGGRDSCQGDSGGPHVTEVEGTSFLTGIISWGEECAMKGKYGIYTKVSRYVNWIKEKTKLT
B3: fIX optimized sequence Beta (with Padua) (protein)
chain: YNSGKLEEFVQGNLERECMEEKCSFEEAREVFENTERTTEFWKQYVDGDQCESNPCLNGGSCKDDINSYECWCPFGFEGKNCELDATCNIKNGRCEQFCKNSADNKVVCSCTEGYRLAENQKSCEPAVPFPCGRVSVSQTSKLTRAETVFPDVDYVNSTEAETILDNITQSTQSFNDFTRVVGGEDAKPGQFPWQVVLNGKVDAFCGGSIVNEKWIVTAAHCVETGVKITVVAGEHNIEETEHTEQKRNVIRIIPHHNYNAAINKYNHDIALLELDEPLVLNSYVTPICIANKEYTNIFLKFGSGYVSGWGRVFHRGRSASVLQYLRVPLVDRATCLLSTKFTIYNNMFCAGFHEGGRDSCQGDSGGPHVTEVEGTSFLTGIISWGEECAMKGKYGIYTKVSRYVNWIKEKTKLT
B4: fIX optimized sequence Gamma (with Padua) (protein)
chain: YNSGKLEEFVQGNLERECMEEKCSFEEAREVFENTERTTEFWKQYVDGDQCESNPCLNGGSCKDDINSYECWCPFGFEGKNCELDATCNIKNGRCEQFCKNSADNKVVCSCTEGYRLAENQKSCEPAVPFPCGRVSVSQTSKLTRAETVFPDVDYVNSTEAETILDNITQSTQSFNDFTRVVGGEDAKPGQFPWQVVLNGKVDAFCGGSIVNEKWIVTAAHCVETGVKITVVAGEHNIEETEHTEQKRNVIRIIPHHNYNAAINKYNHDIALLELDKPLVLNSYVTPICIANKEYTNIFLKFGSGYVSGWGRVFHRGRSASVLQYLRVPLVDRATCLLSTKFTIYNNMFCAGFHEGGRDSCQGDSGGPHVTEVEGTSFLTGIISWGEECAMKGKYGIYTKVSRYVNWIKEKTKLT
B5: fIX optimized sequence Gamma (no Padua) (protein)
chain: YNSGKLEEFVQGNLERECMEEKCSFEEAREVFENTERTTEFWKQYVDGDQCESNPCLNGGSCKDDINSYECWCPFGFEGKNCELDATCNIKNGRCEQFCKNSADNKVVCSCTEGYRLAENQKSCEPAVPFPCGRVSVSQTSKLTRAETVFPDVDYVNSTEAETILDNITQSTQSFNDFTRVVGGEDAKPGQFPWQVVLNGKVDAFCGGSIVNEKWIVTAAHCVETGVKITVVAGEHNIEETEHTEQKRNVIRIIPHHNYNAAINKYNHDIALLELDKPLVLNSYVTPICIANKEYTNIFLKFGSGYVSGWGRVFHRGRSASVLQYLRVPLVDRATCLRSTKFTIYNNMFCAGFHEGGRDSCQGDSGGPHVTEVEGTSFLTGIISWGEECAMKGKYGIYTKVSRYVNWIKEKTKLT
B6: fIX optimized sequence Delta (no Padua) (protein)
chain: YNSGKLEEFVQGNLERECMEEKCSFEEAREVFENTERTTEFWKQYVDGDQCESNPCLNGGSCKDDINSYECWCPFGFEGKNCELDATCNIKNGRCEQFCKNSADNKVVCSCTEGYRLAENQKSCEPAVPFPCGRVSVSQTSKLTRAETVFPDVDYVNSTEAETILDNITQSTQSFNDFTRVVGGEDAKPGQFPWQVVLNGKVDAFCGGSIVNEKWIVTAAHCVETGVKITVVAGEHNIEETEHTEQKRNVIRIIPHHNYNAAINKYNHDIALLELDKPLTLNSYVTPICIANREYTNIFLKFGSGYVSGWGRVFHRGRSASVLQYLRVPLVDRATCLRSTKFTIYNNMFCAGFHEGGRDSCQGDSGGPHVTEVEGTSFLTGIISWGEECAMKGKYGIYTKVSRYVNWIKEKTKLT

Molecular target: T1, activated clotting factor VIII …

| Protein | fIX activity (one-stage APTT-dependent coagulation assay) |
| --- | --- |
| B1 | exhibits higher fIX activity |
| B2 | exhibits higher fIX activity |
| B3 | exhibits higher fIX activity |
| B4 | exhibits higher fIX activity |
| B5 | exhibits higher fIX activity |
| B6 | exhibits higher fIX activity |
